Measurements: the supplement of paper PMC6757056
± gives the standard deviation of the averaged measurements.

B1: library; a variant is named by its letters at N, in order (parent)
chain: GCUGUCACCGGUGUAUUACCCUAGUGGUCGACCGGUCUGAUGAGUCUNNNNNNAGACGAAACAGC

Assays:
[1] = variants of: B1; assay: FACS-Seq fitted mean relative fluorescence mCherry/BFP without ligand (log10 relative fluorescence); ligand: hypoxanthine (xanthine aptamer); higher = higher reporter protein expression; conditions: HEK293T, ligand present: no
Summary of the method: (§1)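 After lentiviral transduction, HEK293T library cells bearing an mCherry ribozyme-switch reporter and an EF1α-BFP marker were enriched. They were then held for 48 h with or without ligand and sorted by mCherry/BFP into 6 bins, and each bin's genomic DNA was PCR-amplified, barcoded and MiSeq-sequenced. Fluorescence is expressed as a normalized fitted mean: the normal mean of log10(mCherry/BFP) bin counts, scaled to five spiked-in control ribozymes.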

[2] = variants of: B1; assay: normalized RNA/DNA level with ligand (relative to sTRSVctl = 100) (log10 (% of sTRSVctl)); ligand: hypoxanthine (xanthine aptamer); higher = less ribozyme self-cleavage, higher mRNA level; conditions: ligand concentration (+) RNA-Seq: 5 mM, HEK293T, reporter: mCherry (pCS4076), ligand present: yes
Summary of the method: (§2)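 Library plasmids encoding reporter-linked ribozyme switches (mCherry, or eGFP for some folinic acid experiments) were transfected into HEK293T at 4 µg per 6-well well. Ligand, when used, was added 1 h before transfection. Total RNA was extracted with EDTA 72 h later, then reverse-transcribed, amplified, barcoded and sequenced. RNA level was RNA reads over DNA reads, divided by a spiked-in non-cleaving control (or the top 25 sequences), ×100, log10; only sequences with ≥100 DNA reads were kept.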

[3] = variants of: B1; assay: normalized RNA/DNA level without ligand (relative to sTRSVctl = 100) (log10 (% of sTRSVctl)); ligand: hypoxanthine (xanthine aptamer); higher = less ribozyme self-cleavage, higher mRNA level; conditions: HEK293T, reporter: mCherry (pCS4076), ligand present: no
Summary of the method: as §2

[4] = variants of: B1; assay: FACS-Seq fitted mean relative fluorescence mCherry/BFP with ligand (log10 relative fluorescence); ligand: hypoxanthine (xanthine aptamer); ligand concentration (+) FACS-Seq: 5 mM; higher = higher reporter protein expression; conditions: HEK293T, ligand present: yes
Summary of the method: as §1

| Variant | FACS-Seq fitted mean (log10) [1] | normalized RNA/DNA level with ligand (log10) [2] | normalized RNA/DNA level without ligand (log10) [3] | FACS-Seq fitted mean (log10) [4] |
| --- | --- | --- | --- | --- |
| CACGGU | 0.663 ± 0.025 | 1.869 ± 0.0027 | 1.758 ± 0.0045 | 0.669 ± 0.15 |
| AUGACA | 0.303 ± 0.11 | 1.909 ± 0.013 | 1.8 ± 0.021 | 0.344 ± 0.049 |
| GAUUAU | 0.368 ± 0.062 | 1.945 ± 0.0077 | 1.839 ± 0.012 | 0.455 ± 0.019 |
| GAAGUG | -0.0452 ± 0.0093 | 1.8 ± 0.024 | 1.276 ± 0.012 | 0.468 ± 0.037 |
| GCGACA | 0.145 ± 0.041 | 1.888 ± 0.012 | 1.57 ± 0.04 | 0.28 ± 0.021 |
| ACUGAG | 0.241 ± 0.019 | 1.818 ± 0.015 | 1.37 ± 0.04 | 0.673 ± 0.028 |
| UCGGAG | -0.494 ± 0.057 | 1.8831 ± 0.00053 | 1.41 ± 0.064 | -0.522 ± 0.082 |
| GAGACU | -0.451 ± 0.03 | 1.96 ± 0.047 | 1.83 ± 0.031 | -0.205 ± 0.035 |
| GGAGAG | 0.274 ± 0.052 | 1.81 ± 0.058 | 1.3 ± 0.017 | 0.507 ± 0.023 |
| UGCCAC | 0.327 ± 0.019 | 1.94 ± 0.031 | 1.89 ± 0.02 | 0.42 ± 0.01 |
| UACAGA | 0.0904 ± 0.019 | 1.908 ± 0.018 | 1.54 ± 0.02 | 0.383 ± 0.04 |
| UACAGG | 0.231 ± 0.044 | 1.838 ± 0.014 | 1.41 ± 0.035 | 0.661 ± 0.032 |
| UACAGC | 0.821 ± 0.21 | 1.96 ± 0.019 | 1.898 ± 0.013 | 0.655 ± 0.12 |
| GGGCAU | -0.045 ± 0.015 | 1.933 ± 0.012 | 1.83 ± 0.075 | 0.103 ± 0.018 |
| UGUACU | 0.71 ± 0.019 | 1.933 ± 0.012 | 1.8501 ± 0.00062 | 0.66 ± 0.018 |
| CAGGAA | 0.2364 ± 0.0018 | 1.958 ± 0.014 | 1.58 ± 0.074 | 0.529 ± 0.019 |
| ACUACG | 0.398 ± 0.086 | 1.93 ± 0.071 | 1.471 ± 0.0099 | 0.666 ± 0.077 |
| GUUCGU | 0.476 ± 0.02 | 1.98 ± 0.087 | 1.887 ± 0.01 | 0.538 ± 0.014 |
| UGCCCA | 0.234 ± 0.013 | 1.944 ± 0.002 | 1.92 ± 0.043 | -0.0574 ± 0.058 |
| AUAAGC | 0.474 ± 0.0089 | 1.918 ± 0.014 | 1.786 ± 0.01 | 0.6615 ± 0.0049 |
| AUAAGU | 0.122 ± 0.094 | 1.852 ± 0.0077 | 1.629 ± 0.011 | 0.279 ± 0.058 |
| CAAUUG | 0.324 ± 0.016 | 1.96 ± 0.026 | 1.894 ± 0.014 | 0.498 ± 0.044 |
| GGUAGC | 0.239 ± 0.017 | 1.86 ± 0.054 | 1.35 ± 0.059 | 0.647 ± 0.056 |
| AUCGAG | 0.2633 ± 0.00067 | 1.793 ± 0.014 | 1.35 ± 0.044 | 0.4 ± 0.028 |

| Variant | FACS-Seq fitted mean (log10) [1] | normalized RNA/DNA level with ligand (log10) [2] | normalized RNA/DNA level without ligand (log10) [3] | FACS-Seq fitted mean (log10) [4] |
| --- | --- | --- | --- | --- |
| UCACCU | 0.67 ± 0.034 | 1.94 ± 0.037 | 1.94 ± 0.061 | 0.419 ± 0.013 |
| GAAGCA | 0.802 ± 0.069 | 1.96 ± 0.03 | 1.76 ± 0.049 | 0.779 ± 0.075 |
| AAGGCG | 0.0654 ± 0.029 | 1.77 ± 0.08 | 1.24 ± 0.032 | 0.526 ± 0.018 |
| UUACAU | 0.352 ± 0.018 | 1.93 ± 0.051 | 1.87 ± 0.026 | 0.453 ± 0.11 |
| GGUAUG | -0.113 ± 0.019 | 1.73 ± 0.052 | 1.32 ± 0.038 | 0.434 ± 0.035 |
| UCAUAG | 0.588 ± 0.1 | 1.89 ± 0.033 | 1.69 ± 0.022 | 0.567 ± 0.11 |
| UAGCAG | 0.215 ± 0.033 | 1.87 ± 0.02 | 1.61 ± 0.038 | 0.507 ± 0.05 |
| ACUGGA | 0.309 ± 0.0042 | 1.952 ± 0.017 | 1.71 ± 0.03 | 0.587 ± 0.064 |
| GUAGGU | 0.5146 ± 0.0047 | 1.95 ± 0.02 | 1.79 ± 0.034 | 0.578 ± 0.11 |
| GUUUGG | 0.231 ± 0.049 | 1.92 ± 0.03 | 1.57 ± 0.06 | 0.62263 ± 0.00024 |
| AACGGU | 0.118 ± 0.036 | 1.88 ± 0.034 | 1.577 ± 0.01 | 0.3457 ± 0.0031 |
| ACGGGG | -0.145 ± 0.048 | 1.81 ± 0.035 | 1.33 ± 0.058 | 0.5396 ± 0.0011 |
| GCGGUC | 0.327 ± 0.046 | 1.878 ± 0.015 | 1.5197 ± 0.00012 | 0.644 ± 0.063 |
| UUAGGC | 0.15 ± 0.015 | 1.95 ± 0.05 | 1.887 ± 0.014 | 0.181 ± 0.0045 |
| GCGUAC | -0.0412 ± 0.02 | 1.82 ± 0.069 | 1.33 ± 0.025 | 0.4627 ± 0.0021 |
| UCUGGG | 0.132 ± 0.074 | 1.97 ± 0.055 | 1.8 ± 0.04 | 0.368 ± 0.054 |
| GGCUCA | 0.301 ± 0.011 | 1.98 ± 0.031 | 1.91 ± 0.074 | 0.297 ± 0.024 |
| UGUCCC | 0.383 ± 0.13 | 2 ± 0.12 | 1.935 ± 0.013 | 0.29 ± 0.068 |
| AUGUCU | 0.305 ± 0.037 | 1.957 ± 0.019 | 1.85 ± 0.046 | 0.0818 ± 0.041 |
| UGGUUC | -0.0246 ± 0.0066 | 1.96 ± 0.063 | 1.925 ± 0.018 | 0.212 ± 0.028 |
| GGUACU | 0.2 ± 0.042 | 1.97 ± 0.083 | 1.93 ± 0.047 | 0.258 ± 0.029 |
| CUGUAU | 0.503 ± 0.018 | 1.899 ± 0.013 | 1.82 ± 0.043 | 0.384 ± 0.08 |
| AAGCGG | -0.261 ± 0.031 | 1.65 ± 0.026 | 1.2 ± 0.027 | 0.442 ± 0.054 |
| AUUAUA | 0.24 ± 0.022 | 1.928 ± 0.019 | 1.81 ± 0.028 | 0.402 ± 0.063 |

| Variant | FACS-Seq fitted mean (log10) [1] | normalized RNA/DNA level with ligand (log10) [2] | normalized RNA/DNA level without ligand (log10) [3] | FACS-Seq fitted mean (log10) [4] |
| --- | --- | --- | --- | --- |
| AUAAUA | -0.24 ± 0.021 | 1.886 ± 0.012 | 1.82 ± 0.0094 | -0.134 ± 0.044 |
| GUCAGG | 0.326 ± 0.071 | 1.858 ± 0.016 | 1.46 ± 0.042 | 0.67 ± 0.0068 |
| AAGAUC | 0.614 ± 0.031 | 1.973 ± 0.0076 | 1.92 ± 0.043 | 0.556 ± 0.033 |
| UAGUGU | 0.0263 ± 0.029 | 1.9 ± 0.065 | 1.45 ± 0.063 | 0.449 ± 0.12 |
| GACUAA | 0.354 ± 0.073 | 1.89 ± 0.027 | 1.796 ± 0.0046 | 0.515 ± 0.01 |
| GUGAGC | 0.0785 ± 0.015 | 1.731 ± 0.017 | 1.15 ± 0.016 | 0.6585 ± 0.0046 |
| UGUCGG | 0.0812 ± 0.15 | 1.9 ± 0.04 | 1.543 ± 0.01 | 0.151 ± 0.019 |
| GAUCAU | 0.447 ± 0.026 | 1.91 ± 0.033 | 1.919 ± 0.018 | 0.521 ± 0.023 |
| AUGCAG | 0.251 ± 0.022 | 1.756 ± 0.01 | 1.29 ± 0.019 | 0.682 ± 0.039 |
| AAAAUU | 0.401 ± 0.01 | 1.93 ± 0.04 | 1.86 ± 0.041 | 0.491 ± 0.064 |
| ACAUCG | 0.306 ± 0.048 | 1.932 ± 0.019 | 1.57 ± 0.016 | 0.584 ± 0.052 |
| GUGUAG | 0.19 ± 0.04 | 1.76 ± 0.022 | 1.17 ± 0.065 | 0.6252 ± 0.0039 |
| CUAAGU | 0.447 ± 0.0085 | 1.93 ± 0.023 | 1.86 ± 0.031 | 0.262 ± 0.12 |
| GACCCU | -0.308 ± 0.41 | 1.99 ± 0.023 | 1.972 ± 0.0096 | 0.1808 ± 0.00023 |
| ACCGGG | 0.153 ± 0.0079 | 1.944 ± 0.015 | 1.89 ± 0.038 | 0.548 ± 0.0066 |
| AUGUAC | 0.103 ± 0.13 | 1.893 ± 0.017 | 1.7 ± 0.026 | 0.149 ± 0.054 |
| CCGCUA | 0.42 ± 0.077 | 2.03 ± 0.053 | 1.827 ± 0.01 | 0.474 ± 0.034 |
| GCGAGG | -0.188 ± 0.032 | 1.637 ± 0.015 | 1.11 ± 0.036 | 0.5 ± 0.017 |
| AGGGUC | 0.588 ± 0.012 | 2.003 ± 0.0048 | 1.94 ± 0.06 | 0.51 ± 0.11 |
| GCUACG | 0.064 ± 0.029 | 1.95 ± 0.078 | 1.517 ± 0.015 | 0.42 ± 0.0069 |
| GGGGUA | 0.00434 ± 0.0088 | 1.94 ± 0.064 | 1.837 ± 0.0033 | 0.179 ± 0.094 |
| AGGAUG | 0.132 ± 0.024 | 1.79 ± 0.042 | 1.25 ± 0.045 | 0.526 ± 0.06 |
| GAGAGA | 0.257 ± 0.028 | 1.81 ± 0.02 | 1.34 ± 0.042 | 0.585 ± 0.043 |
| GGGUAG | -0.254 ± 0.0079 | 1.74 ± 0.03 | 1.44 ± 0.079 | 0.395 ± 0.063 |
